Some results are limits rather than exact numbers.

Test [1] deals with T1, human serum albumin (human, UniProt P02768 25-609).
T1 construct: also called HSA
The experiment in a line: SPR (Biacore), albumin captured on chip, SABA in flow. As to the method:
(§1) The kinetics of selected SABA clones purified from HTPP and/or midscaled material described in Examples 5A and 5B were determined by capturing the respective serum albumin (HSA/RhSA/MuSA) on the surface of a Biasensor CMS chip and flowing a concentration series of SABAs over both the reference flow cell and the captured albumins. In addition, binding to albumin was carried out under various pH conditions ranging from pH 5.5 to pH 7.4.

Test [2] has as its target T2, rhesus serum albumin (rhesus, UniProt Q28522 17-600).
T2 construct: also called RhSA
Described as above. As to the method: as §1

Test [3] concerns the target T3, murine serum albumin (mouse, UniProt P07724 25-608).
T3 construct: also called MuSA; mouse serum albumin
The experiment in a line: SPR, captured albumin. How it is done:
as §1

The target of test [4] is T4, human PCSK9 (proprotein convertase subtilisin kexin type 9) (human, UniProt Q8NBP7 31-692). Nature of the test: cell-based or functional assay.
For test [5], the target named is T4, human PCSK9 (proprotein convertase …). Nature of the test: cell-based or functional assay. This is another data set of the same source.
Test [6] has the same target. The experiment in a line: PCSK9:EGFA FRET, competitor EGFA peptide.
The target is the same in test [7]. The experiment in a line: ITC, 37 C.
The target is the same in test [8]. Nature of the test: PCSK9:ATI-972 FRET at 5 nM human PCSK9, competitor biotinylated ATI-972.
Test [9] has the same target. Nature of the test: BLI (Octet Red), 37 C. In general terms: In BLI a coated tip is dipped into the sample, and binding shifts an interference pattern.
Test [10] shares this target. Nature of the test: PCSK9:EGFA FRET at 5 nM PCSK9, competitor EGFA peptide.
For test [11] the target is unchanged. Nature of the test: SPR (ProteOn), 25 C.
The target of test [12] is T5, Cynomolgus PCSK9 (cynomolgus monkey, UniProt A0A7N9D9N8 150-747).
T5 construct: also called cyno PCSK9; cPCSK9
Nature of the test: SPR (ProteOn), PCSK9 immobilized directly, 25 C. As to the method:
The binding characteristics were characterized by Surface Plasmon Resonance (SPR). […] This allowed kinetic determination in the absence of regeneration. […] Evaluation of the kinetic parameters was performed using the Langmuir interaction model and constant parameter fitting with the ProteOn Manager software.

For test [13], the target named is T6, human PCSK9 (proprotein convertase subtilisin kexin type 9) (human, UniProt Q8NBP7 31-692).
T6 construct: Directly immobilized (SPR ProteOn), biotinylated (BLI), or in solution, depending on the assay; also called hPCSK9
Nature of the test: BLI, biotinylated hPCSK9 on sensor tips.

Test [14] deals with T6, human PCSK9 (proprotein convertase …). Nature of the test: KinExA, solution phase. How it is done:
Due to technical limitations, the lowest concentration of Adnectins that could be tested was 1 nM.
On the technique in general: Kinetic exclusion samples the free partner from a solution-phase mixture.

For test [15] the target is unchanged. Nature of the test: ITC, 37 C, average of 3 experiments. As to the method: Solution phase binding was measured in 25 mM HEPES, pH 7.41, 150 mM NaCl at 37° C.
Background: ITC needs no label: the signal is the heat of the interaction.

Test [16] deals with T7, cynomolgus monkey PCSK9 (cynomolgus monkey, UniProt A0A7N9D9N8 150-747).
T7 construct: also called cyno PCSK9; cPCSK9
Nature of the test: FRET, competitor EGFA peptide. An excerpt: (§2) Table 11 summarizes the overall data from these three FRET assays.

The target of test [17] is T6, human PCSK9 (proprotein convertase …). The experiment in a line: FRET, competitor EGFA peptide.
From the text: as §2

For test [18] the target is unchanged. Nature of the test: BLI Octet Red, 37 C. As to the method:
Tips were then immersed into a buffer-only well for observation of Adnectin dissociation. Experiments were performed in a temperature controlled environment at either 25 or 37° C., and the oscillation speed was set at 1500 rpm.
Binding interaction analysis was performed using proprietary software from Fortebio (Fortebio Data Analysis Software version 6.3.0.36). Global fits were performed for all samples, using a 1:1 binding model. The nature of these global fits constrained all values of concentration to a single pair of association and dissociation rates that were themselves constrained to each other. Affinities (KD), association and dissociation rates were averaged over the various loading levels used in the analysis.

B1: SABA3.1 (designed binder)
chain: MGVSDVPRDLEVVAATPTSLLISWSNDGPGLSYYRITYGETGGNSPVQEFTVPSSQTTATISGLKPGVDYTITVYAVSYYTKKAYSAGPISINYRTEIDKPSQHHHHHH
notes: also called clone 1245H07
Turning to B1, the Kd (in general, the free concentration of one partner at which half of the binding sites on the other are occupied at equilibrium, for simple one-to-one binding) was 863 nM in test [1] and 431 nM in test [2]. Further, the koff (commonly the rate constant with which the complex falls apart) in [1] amounted to 0.0682 s⁻¹; in test [2], 0.0337 s⁻¹.

B2: SABA3.1 (designed binder)
chain: MGVSDVPRDLEVVAATPTSLLISWSNDGPGLSYYRITYGETGGNSPVQEFTVPSSQTTATISGLKPGVDYTITVYAVSYYTKKAYSAGPISINYRTEIDKPSQHHHHHH
notes: also called clone 1245H07
As for B2, the binding result in [3] is on record as “no binding”.

B3: SABA2.1 (designed binder)
chain: MGVSDVPRDLEVVAATPTSLLISWPKYDKTGHYYRITYGETGGNSPVQEFTVPTRQTTATISGLKPGVDYTITVYAVSKDDYYPHEHRPISINYRTEIDKPSQHHHHHH
Take B3: in [3], the binding result was “no binding”.

B4: 1784F03 (designed binder)
chain: MGVSDVPRDLEVVAATPTSLLISWRPPIHAYGYYRITYGETGGNSPVQEFTVPIVEGTATISGLKPGVDYTITVYAVEYTFKHSGYYHRPISINYRTEIDKPSQHHHHHH
Regarding B4, in test [4], the “DiI-LDL uptake in HepG2 cells, EC50” value turned out to be 210 nM; the “EC50 (nM), PCSK9-induced LDLR depletion from HepG2 cell surface” value (“EC50 (nM), PCSK9-induced LDLR depletion” below) was found to be 16 nM; the “percentage of PCSK9 inhibition at 75 nM” value was 150%. Also, in test [5], the “LDLR Depletion (% inhibition at 75 nM)” value is 150% and the “LDLR Depletion EC50” value turned out to be 26 nM. In addition, in test [6], a half-maximal response (EC50) required 2 nM. In test [7], this molecule yielded a Kd of 3.8 nM.

B5: 2013E01 (designed binder)
chain: MGVSDVPRDLEVVAATPTSLLISWVPPSDDYGYYRITYGETGGNSPVQEFTVPIGKGTATISGLKPGVDYTITVYAVEFPWPHAGYYHRPISINYRTEIDKPSQHHHHHH
notes: unmodified (not PEGylated) Adnectin; also called ATI001081
Turning to B5, in [8], the response was half-maximal at 2.8 nM (EC50). Besides, in [4], the “DiI-LDL uptake in HepG2 cells, EC50” value was determined as 160 nM; the “EC50 (nM), PCSK9-induced LDLR depletion” value worked out at 12.4 nM; the “PCSK9-induced LDLR depletion in HepG2 cells, EC50” value stood at 9 nM; the “percentage of PCSK9 inhibition at 75 nM” value amounted to 152%. In test [5], the “LDLR Depletion (% inhibition at 75 nM)” value was found to be 166% and the “LDLR Depletion EC50” value came out at 10 nM. Also, binding in test [9] was put at a Kd of 1.51 nM. For the same molecule, in test [10], the response was half-maximal at 3.7 nM (EC50). In test [11], this molecule yielded a dissociation constant Kd of 0.29 nM. Also, in [6], the EC50 (in general, the concentration giving half of the maximal effect) is 1.6 nM. In test [12], this molecule registered a Kd of 8 nM.

B6: 1813E02 (designed binder)
chain: MGVSDVPRDLEVVAATPTSLLISWSPPANGYGYYRITYGETGGNSPVQEFTVPVGRGTATISGLKPGVDYTITVYAVEYTYKGSGYYHRPISINYRTEIDKPSQHHHHHH
With B6, the “LDLR Depletion EC50” value in test [5] came to 16 nM. In [6], this molecule returned an EC50 of 1.3 nM. In addition, the Kd in [7] was < 2 nM.

B7: 2012A04 (designed binder)
chain: MGVSDVPRDLEVVAATPTSLLISWRPPSNGHGYYRITYGETGGNSPVQEFTVPVNEGTATISGLKPGVDYTITVYAVEFPFKWSGYYHRPISINYRTEIDKPSQHHHHHH
For B7, in test [4], the “DiI-LDL uptake in HepG2 cells, EC50” value is 130 nM; the “EC50 (nM), PCSK9-induced LDLR depletion” value was 7.78 nM; the “percentage of PCSK9 inhibition at 75 nM” value was 190%. Further, in test [5], the “LDLR Depletion (% inhibition at 75 nM)” value was 144% and the “LDLR Depletion EC50” value worked out at 12 nM. Moreover, binding in test [11] was put at a Kd of 0.25 nM. For the same molecule, the EC50 in [6] was 2.1 nM. The molecule also returned a Kd in [12] of 24 nM.

B8: SABA1.1 (designed binder)
chain: MGVSDVPRDLEVVAATPTSLLISWHSYYEQNSYYRITYGETGGNSPVQEFTVPYSQTTATISGLKPGVDYTITVYAVYGSKYYYPISINYRTEIDKPSQHHHHHH
notes: core 1 10Fn3 with His6; also called clone 1318H04
With B8, the binding result in test [3] is recorded as “no binding”.

B9: ATI001174 (designed binder)
chain: MGVSDVPRDLEVVAATPTSLLISWVPPSDDYGYYRITYGETGGNSPVQEFTVPIGKGTATISGLKPGVDYTITVYAVEFPWPHAGYYHRPISINYRTEIEKPCQ
modifications: PEG on the cysteine of the C-terminal tail (EIEKPCQ)
notes: also called ATI-1174; ATI1174
In the case of B9, in [4], the “PCSK9-induced LDLR depletion in HepG2 cells, EC50” value was determined as 8 nM and the “inhibition of PCSK9-AF647 intracellular fluorescence in HepG2 cells, EC50” value was 10 nM. The EC50 in test [10] was determined as 1.9 nM.

B10: ATI001174 (designed binder)
chain: MGVSDVPRDLEVVAATPTSLLISWVPPSDDYGYYRITYGETGGNSPVQEFTVPIGKGTATISGLKPGVDYTITVYAVEFPWPHAGYYHRPISINYRTEIEKPCQ
modifications: PEGylated on the cysteine of the C-terminal EIEKPCQ tail
notes: PEGylated, non-His-tagged cysteine mutant of 2013E01; also called ATI-1174; ATI1174
For B10, in test [13], the Kd was found to be 7.4 nM; the koff turned out to be 0.000901 s⁻¹; the kon (in general, the second-order rate constant of association) is 126000 M⁻¹ s⁻¹. Further, the Kd in [14] was 0.223 nM. In addition, in test [15], the Ka came out at 7.5e+08 M⁻¹; the affinity, expressed as Kd, was 1.3 nM; the “Stoichiometry (N)” value amounted to 0.857; the ΔH was -29.9 kcal/mol. In addition, the ΔS in test [15] was -55.8 cal/mol °C.

B11: ATI001114 (designed binder)
chain: MGVSDVPRDLEVVAATPTSLLISWVPPSDDYGYYRITYGETGGNSPVQEFTVPIGKGTATISGLKPGVDYTITVYAVEFPWPHAGYYHRPISINYRTGSGCHHHHHH
modifications: 40 kDa two-branched PEG on the cysteine of the C-terminal tail (GSGC)
notes: also called ATI1114
With B11, in test [8], the EC50 was 0.8 nM.

B12: SABA4.1 (designed binder)
chain: MGVSDVPRDLEMVAATPTSLLISWEDDSYYSRYYRITYGETGGNSPVQEFTVPSDLYTATISGLKPGVDYTITVYAVTYDVTDLIMHEPISINYRTEIDKPSQHHHHHH
On to B12, for which the binding result in [3] is “no binding”.

B13: 2382D05 (designed binder)
chain: MGVSDVPRDLEVVAATPTSLLISWDAPADGGYGYYRITYGETGGNSPVQEFTVPVSKGTATISGLKPGVDYTITVYAVEFDFPGAGYYHRPISINYRTEIDKPSQHHHHHH
notes: Anti-PCSK9 Adnectin, His6-tagged; Same entry as 2451B06
B13: in test [13], the Kd turned out to be 0.314 nM, the koff is 0.000157 s⁻¹ and the kon turned out to be 505000 M⁻¹ s⁻¹. The EC50 in test [16] was 57.8 nM. Also, the response in test [17] was half-maximal at 2.6 nM (EC50). Binding in [18] was characterised by a dissociation constant (Kd) of 0.314 nM.

B14: 2451B06 (designed binder)
chain: MGVSDVPRDLEVVAATPTSLLISWDAPADGGYGYYRITYGETGGNSPVQEFTVPVSKGTATISGLKPGVDYTITVYAVEFDFPGAGYYHRPISINYRTEIDKPSQHHHHHH
notes: Anti-PCSK9 Adnectin, His6-tagged; also called 2451B06 (equivalent to 2382D05)
In the case of B14, the EC50 stood at 57.8 nM in test [16] and 4.5 nM in test [17].
